Source: the supplement of paper PMC12764529
± gives the half width of the 95% confidence interval.

Assay: folding stability dG unfold from chymotrypsin proteolysis; higher = more stable
Protocol: (§1)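 Folding stability of de novo designed mini-proteins (<80 aa, no Cys; designed by TrROS, TrMRF, ProteinMPNN and the joint model) was measured by cDNA display proteolysis with trypsin and chymotrypsin. Each protease was used at 11 concentrations in a threefold dilution series plus a no-protease condition. K50 was inferred by Bayesian fitting of sequencing counts, and dG unfold was derived against a sequence-predicted unfolded-state K50 (Tsuboyama et al. method). Sequences shown include variable-length N-terminal GS-type padding (SAGGSAGG...) inside a display construct carrying a PA tag. Rows were kept only if the AF2 dimer inter-PAE was >15, to exclude likely homo-oligomers.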

Sequence | folding stability dG unfold [kJ/mol]
SAGEVEKITLTIVVEDPNMTLEEILKKALEALGLKEEDVEVKIVSIKEETLPDGRKLTVIEVEITVPKPSAG [r5_528_TrROS_Hall] | 14.3 ± 1.09
SAMKVIVKIKIYDKNGKLVKEIEIPAEILEKDPEKLKELAEKLAEELKKKGYKVEIELVEVVPVEEEEESAG [r14_972_TrROS_Hall] | 18.8 ± 1.72
SAGGMRFRVRLFRPGRWLPPREVEPGAEAALRELPADVPFVVIEFDDPRGRRRVFFRSPEELRRAVAASAGG [r13_299_TrMRF] | 1.59 ± 2.76
SAGGSAGGSAGGAEELLENGRLRIEWPNGRTHTIDLDDGKIEPPPGFPPDNIRRVEIVPPSAGGSAGGSAGG [r7_566_TrROS] | 1.86 ± 1
SAGGSAVKITVEEREIIVPPEEDPLAENNPGIVVKKKTVKYEKEMTPEEKEKFLKEIEEKTGIKIISAGGSA [r15_347_JUSTAS] | -0.677 ± 1
SAGGSAVTAEWILDHMRDMGMPEEDVKIDDVQLEREPDKVVIRIEITMRHPNDGKQRRMDMEIPLPSAGGSA [r15_863_TrROS] | -0.688 ± 1.42

Assay: folding stability dG unfold (combined trypsin and chymotrypsin); higher = more stable
Protocol: as §1

Sequence | folding stability dG unfold [kJ/mol]
SPKIKITEVEPNPGNMEKRTIELPNRPITLYWPPENGYYRVKIEDPDNNKERQIMVPPGQPPEEIAKDLLSA [r9_522_TrROS] | < -4.18
SAGGSAGGSVVPPEEEETVEKKETLTDPVTGKEYLSRRRVTYRPSKPEKVAEEEEIIPPDEPLSAGGSAGGS [r12_868_JUSTAS] | < -4.18
SAGGSAGGSARVTVTPLPDDRVAVSVERTLYRRDADGNPLGPVRIQASVVVDSLEDAAELASAGGSAGGSAG [r3_232_TrMRF] | < -4.18
SAGGSAGGSAGMTVKEFTTEEEAKEAIEKAPKDVPLLLILKKPESEEEKVILYTGDKVIEEESAGGSAGGSA [r18_407_JUSTAS] | < -4.18
SAGGRPYKVKIKNPGSGKPYEMPIVDVHESDDNFYIMIQNPNGKNREAPLNNIDKAEVDEEGGTITLPSAGG [r13_211_TrROS] | < -4.18
SAGGLPSPDAVVEEESLELSFESSSEVVVTKKKTTKKVLPNGKVETETEEEEEVVKATKEEIEKLKKESAGG [r13_544_JUSTAS] | < -4.18
SAGGSAGGSANPMPVRFQIEWKNPKDGKKQKIPITGTIPDGNGKKHSINELLKNLPGFKIKPSAGGSAGGSA [r18_267_TrROS] | < -4.18
SAGGMDDVIRKALEEATPPLEVKEELILTTEPTPRGTVITKTTRPIIKSPEPGTFVPEPVEVVPAALLSAGG [r19_11_JUSTAS] | < -4.18
SAGGSAGGSAMWVRDIADELRKEGKPVKIEMRNPNGKEKEYTIKPGEPLPPGWDIEKIEYKSAGGSAGGSAG [r3_421_TrROS] | < -4.18
SAGGSEVFVLPNGAVAVVEPDPDGVRVARVPGLPGVAVRYPPATRRWVLVTVDPRKGGPRTFTLTGSAGGSA [r2_477_TrMRF] | < -4.18
SAGGSAGGSAGGSGMRLVEEVKYSTRKQPTGVPVYEVENLKVKEVPVKITVDSNGVLTLESAGGSAGGSAGG [r11_381_JUSTAS] | < -4.18
SAGGSAGGSAKKIEIEPMPNGWTVRIKGNDGKKREIPIPNPNQSISDIAKRAEDNGIDDVEISAGGSAGGSA [r18_83_TrROS] | < -4.18
SAGGMKAEIVNPNLSPEELKELILKAPEAKDVDIEVKKTSAKGAVSAKITTKSEKEAETIKKAVEEAVSAGG [r13_580_JUSTAS] | < -4.18
SAGGSAGSSSVSTVTPVGDYVVVTVNAPEGSVVTITDPATGTTETRAAPAGATFTVPPNASVSVTNSAGGSA [r15_418_JUSTAS] | < -4.18
SAGGKIGQEVDPGEPITIPIVKRDGDNPKKEKINFRLPPGMRIRPKDDNIMIRFPGNGQEQTIPLKDLSAGG [r13_275_TrROS] | < -4.18
SAGGSAGGSAGGDLEIHIPPGMDPAQADNFAKMFGLKNIKIEPVPPVKPRVYTKNGEPDSAGGSAGGSAGGS [r10_1083_TrROS] | < -4.18
SAGGSAGGSAGKITIKPEGQDGNGMYYEIRLPDNGKTIQVPFPSPEDADRRAKKILKELFSAGGSAGGSAGG [r11_848_TrROS] | < -4.18
SAGGIMFDSPEEAEELADNGRIKPVNRGKQKHKDNGKEREHEMYMVKIKDPEDNKPVQVMIPADQIRSAGGS [r16_271_TrROS] | < -4.18
SAGGSAGGSAGKNGQPEKVEPQPKIKIRVEDNGKEFETPEQAEELKDELAKKGYKIKVERSAGGSAGGSAGG [r17_289_TrROS] | < -4.18
SAGGSAGGSAPGQKFPIKEVYWNDGRLAIKVEDNGEEQIIPVGAKIEDDDDGEIKIKLLPPPSAGGSAGGSA [r18_468_TrROS] | < -4.18
SAGGSAGGSAGMPVTESTVTTPTGGLRVTYFPGTNLIELLPVEDGEPRPRLFNSEEALERLSAGGSAGGSAG [r3_426_JUSTAS] | < -4.18
SAGGSAGGSAGGSGEDDVEVEVVPLPGDLTRTIERFPGLVRTFVYAPDSEVAEEEFELPSAGGSAGGSAGGS [r4_322_JUSTAS] | < -4.18
SAGSATFTRATTPLPEVTLSWEELEELVKDPNIDSISVHSPTADRTLPAPEGKITGPLAPDQTVTLVGSAGG [r19_152_JUSTAS] | < -4.18
SAGGSPVVPLPPDATATLTETVKVPRVLFDEEGNELEKLEVERTVTTTYTRLPGGEVATTTTTTTESAGGSA [r2_154_JUSTAS] | < -4.18
SAGGSAGGSAVVTLPDGRLLITEKVEEEVVFPDRDRTSKRVTTKTTLIDPATGTVLPASLLSAGGSAGGSAG [r3_394_JUSTAS] | < -4.18
SAGGSAGGSAGPPERTLSAIIAPNGEILNPIPVPEGAKVTVEPIPETGYYVATVTVPADVSAGGSAGGSAGG [r11_32_TrMRF] | < -4.18

Sequence | folding stability dG unfold [kJ/mol]
SAGGSAGGSAGGKRHRIDNIEPFNNDGEKLYRIRMPGGKEQRFPVGEEFTPNGAEIEPLPSAGGSAGGSAGG [r7_931_TrROS] | < -4.18
SAGGSAGGSAGGDNIMIKIRNPGKPRTFMIKDPEQLKNMSLKELADELVDKHGWPVEIYPSAGGSAGGSAGG [r7_259_TrROS] | < -4.18
SAGGGMNEPVPKVTVTTTSVSVEPPPDLPGIAKVYTPTVITTDDEAVAEAIAEEIAAQPDVEYEDTGASAGG [r13_606_JUSTAS] | < -4.18
SAELVLASVEKKGDEVIAVTAFPDGLFVKVKTKDGKIFAAPLPAENIGPQVEALKKAFPGVEVEPFLAESAG [r14_528_TrMRF] | < -4.18
SAGMPVTTVTLYTTDPATGTPTATPGPISDVLALLKREGLPVEREEYDPSPQTHTVYSKGPGKDYIVAGSAG [r5_521_JUSTAS] | < -4.18
SAGGSAGGSAGMKIKLPNIPGAEVEIEKDPEVPDLYKIKIKNKETKEEIEITLPKEALKPSAGGSAGGSAGG [r17_341_TrROS_Hall] | < -4.18
SAGGSAGGSPAFTVPREVKVGDKPVTVEVDGEGRVTIRTPEGGSESEPVGSPGPAPVAFRITLKSAGGSAGG [r6_241_JUSTAS] | < -4.18
SAGGSAGGSAGEPGFTVRVLKKDLPTGEFSEVEIEVPASVPLEEVIEALDPDQVVAVEVESAGGSAGGSAGG [r11_386_TrMRF] | < -4.18
SAGGNKTREREIPIPPGDSPDQAVDRVLEELEKHPDNNNVNINFRHPNGMPIKIRVTPNGKITEVEPYSAGG [r13_690_TrROS] | < -4.18
SAGGSADMPMLPIEEIIDQLKEAKEANPNKKRTIEIPYPDGMPMQIEIDNDGKTKIEHPDGQWITISAGGSA [r15_73_TrROS] | < -4.18
SAGGSAGGSAGGSMLLTSQLLREFPNGEVRLETEVVELELPDEPLPLPKPKPRRDPEGRLVSAGGSAGGSAG [r3_252_JUSTAS] | < -4.18
SAGGSAGGSAGGSKEITFPAREIAEKLGIPPGRPITPEFLNKIKHVETDENGWVTLKLDSAGGSAGGSAGGS [r4_369_TrROS] | < -4.18
SAGIRFRPGARIEWQNPDNGKKVEIRMREIRDRIQEINGNENPEQITAEQIQEWAREHGFRPIKIEPPSAGG [r19_67_TrROS] | < -4.18
SAGGSAGGSTWEEVKKKAKEAGPELDFEPSPEGEKKFKIVAPKDKPEAVEALAKEYNVELEIESAGGSAGGS [r12_74_TrMRF] | < -4.18
SAGGMPPSFVVEEEKTVEGTSTVTLRKITNPSSSEDMLSEIVTPPDGSVTLILKKDNIIEVIPSSELSAGGS [r16_49_JUSTAS] | < -4.18
SAGGMELKVVTLEATSGRREDAGLVPAALEEGARELALAHPELRILGADMEVEPLGEEYVARIPLVVGSAGG [r13_305_TrMRF] | < -4.18
SAAEWLKEEGLKVKDVEVTKPRENPNGKREMEYRIKVRLPNKKVEVPIRMPSDSPETALNMAHNILRELSAG [r14_726_TrROS] | < -4.18
SAGGSAGGSPIMVRVERRDKDGKKKPVPTIPIPINNDDPEEALEWANEIAKKAGARDVRVEIWSAGGSAGGS [r12_569_TrROS] | < -4.18
SAGGSAGGSAGGMKVIPIYSPGKGSKEEIIELVKKKNPNVKKVEVTYNPEEDVATVTIESAGGSAGGSAGGS [r10_225_JUSTAS] | < -4.18
SAGGSAGGSAGGPRVTGTPVPGDDEPLLVVEREYTVEVGGGPRPVRVRFVFDHPDEALRSSAGGSAGGSAGG [r7_896_TrMRF] | < -4.18
SAGGSAGGSAGEPIPFRIKVELPGNGREQEIDFPIKTPSEANEIANQLPPGFKRVKIEWYSAGGSAGGSAGG [r11_25_TrROS] | < -4.18
SAGGEKVPLKIRDPDNGNPHEFDKIESIDSVEMQKPPDNRQQYSIRFPGDGRPIMIDDPEDIEEALKSAGGS [r8_206_TrROS] | < -4.18
SAGGSAGGSAGGSNIPTDETVEKVVKIGPKPVTVTITAEPGKLLAKFPKEKKTVPISSLLSAGGSAGGSAGG [r7_37_JUSTAS] | < -4.18
SAGGSAGGSAGGSFVPMSQVTKVTPVGDKLVIETPGNPIVFSPEEIPIPEDLPLNFVPRSAGGSAGGSAGGS [r10_665_JUSTAS] | < -4.18
SAGGSAGGSAGERYYMVEIQPKNGRRIKIMIPDDPEKAVKKARELFPDYEVEVEPMKKPPSAGGSAGGSAGG [r11_850_TrROS] | < -4.18
